The record followed here is article PMC5484684, “Intracellular targeting of annexin A2 inhibits tumor cell adhesion, migration, and in vivo grafting” (Scientific Reports, 2017).

Assay [1] addresses T1, GST-fused recombinant annexin A2 (human, UniProt P07355 1-339).
T1 construct: May be the same protein as the annexin A2 bought from Amprox
Nature of the assay: phage binding assay; recombinant proteins in 96-well plates; iPhage input 10^9 TU/well; bound phage particles quantified by bacterial infection; TU normalised on an insertless iPhage. The following applies: both partners purified.

Assay [2] concerns the target T2, human recombinant annexin A2 (human, UniProt P07355 1-339).
T2 construct: annexin A2, human, recombinant; also called ANXA2; source: bought: Amprox
The description is as above. The following applies: both partners purified.

Ends that are not written are not given here.

T2 sequence (P07355 whole entry): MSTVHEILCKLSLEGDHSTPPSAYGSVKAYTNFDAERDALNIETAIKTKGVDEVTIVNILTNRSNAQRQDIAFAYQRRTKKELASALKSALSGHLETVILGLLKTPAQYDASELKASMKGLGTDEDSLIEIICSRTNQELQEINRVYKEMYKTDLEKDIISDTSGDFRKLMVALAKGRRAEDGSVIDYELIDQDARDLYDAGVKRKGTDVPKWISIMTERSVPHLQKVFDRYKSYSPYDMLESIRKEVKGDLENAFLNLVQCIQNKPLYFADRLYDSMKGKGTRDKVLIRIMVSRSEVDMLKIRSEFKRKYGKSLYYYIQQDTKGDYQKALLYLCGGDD
T1 sequence (P07355 whole entry, the tested form may be a part): as the sequence (P07355 whole entry) above

B1: LGRFYAASG-displaying iPhage (peptide)
peptide: LGRFYAASG
modifications: also: phage-displayed
notes: peptide selected from the X4YX4 iPhage random peptide library in KS1767 cells; the alanine variants were cloned into the fUSE5 vector; source: recovered and amplified by E. coli infection, and purified
Consider B1, for which the binding result in assay [1] and in assay [2] was “binds” in each case.
